Laboratory results from article PMC11127010 (Proceedings of the National Academy of Sciences of the …, 2024).

B1: hSTIM1-WT EF-SAM domain (aa58 to 201) (domain or fragment)
chain: SEDEKLSFEAVRNIHKLMDDDANGDVDVEESDEFLREDLNYHDPTVKHSTFHGEDKLISVEDLWKAWKSSEVYNWTVDEVVQWLITYVELPQYEETFRKLQLSGHAMPRLAVTNTTMTGTVLKMTDRSHRQKLQLKALDTVLFG
B2: hSTIM1 EF-SAM domain (aa58 to 201) α9-mutant (V178A-L179A) (domain or fragment)
chain: SEDEKLSFEAVRNIHKLMDDDANGDVDVEESDEFLREDLNYHDPTVKHSTFHGEDKLISVEDLWKAWKSSEVYNWTVDEVVQWLITYVELPQYEETFRKLQLSGHAMPRLAVTNTTMTGTAAKMTDRSHRQKLQLKALDTVLFG

Biological target: the molecule itself
Test: SEC-MALS

Row | Protein | stoichiometry N
1 | B1 | ≥ 2
2 | B2 | ≥ 2
